The values that follow come from patent US20260001928A1 (CORTERIA PHARMACEUTICALS, priority 2022, published 2026).

The target in one test is T1, CRF1R receptor (UniProt P34998 24-415, limits assumed).
T1 sequence (looked up): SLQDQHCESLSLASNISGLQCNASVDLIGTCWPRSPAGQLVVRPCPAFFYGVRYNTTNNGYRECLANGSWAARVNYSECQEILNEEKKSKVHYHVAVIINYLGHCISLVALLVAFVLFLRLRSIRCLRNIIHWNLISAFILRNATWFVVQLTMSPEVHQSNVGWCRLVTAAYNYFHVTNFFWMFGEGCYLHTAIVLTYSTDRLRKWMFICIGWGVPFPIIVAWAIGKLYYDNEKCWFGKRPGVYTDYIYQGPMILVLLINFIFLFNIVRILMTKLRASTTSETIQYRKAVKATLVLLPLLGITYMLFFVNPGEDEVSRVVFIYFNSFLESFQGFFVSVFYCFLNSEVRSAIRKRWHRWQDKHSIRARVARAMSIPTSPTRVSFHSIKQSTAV
Nature of the test: cell-based or functional assay.

Test [1] concerns the target human corticotropin-releasing factor 2a (CRF2a receptor) (human), Q13324. In words: cell-based or functional assay.

*1 amine or outer side, *2 acyl side, *3 side chain or, on linkers, in order; H or OH if unused. Where no end group is shown, it is not given here. Side-chain parts run from the residue outwards. [ ]: non-standard residue; d: D form. The star is where a group is joined. C18 diacid = O=C(O)CCCCCCCCCCCCCCCCC(=O)*; C16 diacid = O=C(O)CCCCCCCCCCCCCCC(=O)*; γGlu = O=C(O)[C@H](CCC(=O)[*:2])N[*:1]; NMeI = CC[C@H](C)[C@H](NC)C(=O)O; Abu = CC[C@H](N)C(=O)O; Dap = NC[C@H](N)C(=O)O; Aib = CC(C)(N)C(=O)O

Sequence of human corticotropin-releasing factor 2a (CRF2a receptor) (human), Q13324 (Q13324 20-411): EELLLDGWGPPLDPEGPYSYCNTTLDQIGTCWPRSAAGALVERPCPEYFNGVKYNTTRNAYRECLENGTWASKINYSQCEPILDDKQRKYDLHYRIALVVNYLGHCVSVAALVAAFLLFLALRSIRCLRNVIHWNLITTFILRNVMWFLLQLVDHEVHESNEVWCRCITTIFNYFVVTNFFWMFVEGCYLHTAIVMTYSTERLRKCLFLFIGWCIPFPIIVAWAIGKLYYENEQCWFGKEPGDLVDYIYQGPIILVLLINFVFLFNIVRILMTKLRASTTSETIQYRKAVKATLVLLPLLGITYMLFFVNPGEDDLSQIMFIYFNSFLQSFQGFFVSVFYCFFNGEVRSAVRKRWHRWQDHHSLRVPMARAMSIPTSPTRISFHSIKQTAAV

B1: SEQ ID NO 137 (peptide)
peptide: [NMeI]VLSLD[dV]PIKLK([γGlu-C18 diacid])KILLEQEKQKKQREQAETN[Aib]QILAQV-NH2
modifications: N-terminus assumed
SMILES: CC[C@H](C)[C@H](NC)C(=O)N[C@H](C(=O)N[C@@H](CC(C)C)C(=O)N[C@@H](CO)C(=O)N[C@@H](CC(C)C)C(=O)N[C@@H](CC(=O)O)C(=O)N[C@@H](C(=O)N1CCC[C@H]1C(=O)N[C@H](C(=O)N[C@@H](CCCCN)C(=O)N[C@@H](CC(C)C)C(=O)N[C@@H](CCCCNC(=O)CC[C@H](NC(=O)CCCCCCCCCCCCCCCCC(=O)O)C(=O)O)C(=O)N[C@@H](CCCCN)C(=O)N[C@H](C(=O)N[C@@H](CC(C)C)C(=O)N[C@@H](CC(C)C)C(=O)N[C@@H](CCC(=O)O)C(=O)N[C@@H](CCC(N)=O)C(=O)N[C@@H](CCC(=O)O)C(=O)N[C@@H](CCCCN)C(=O)N[C@@H](CCC(N)=O)C(=O)N[C@@H](CCCCN)C(=O)N[C@@H](CCCCN)C(=O)N[C@@H](CCC(N)=O)C(=O)N[C@@H](CCCNC(=N)N)C(=O)N[C@@H](CCC(=O)O)C(=O)N[C@@H](CCC(N)=O)C(=O)N[C@@H](C)C(=O)N[C@@H](CCC(=O)O)C(=O)N[C@H](C(=O)N[C@@H](CC(N)=O)C(=O)NC(C)(C)C(=O)N[C@@H](CCC(N)=O)C(=O)N[C@H](C(=O)N[C@@H](CC(C)C)C(=O)N[C@@H](C)C(=O)N[C@@H](CCC(N)=O)C(=O)N[C@H](C(N)=O)C(C)C)[C@@H](C)CC)[C@@H](C)O)[C@@H](C)CC)[C@@H](C)CC)C(C)C)C(C)C
Turning to B1, the “Emax (% I)” value in the test with CRF1R receptor worked out at 9%. The molecule also came in with an EC50 [nM] (cAMP) in test [1] of 0.07 nM.

B2: SEQ ID NO 128 (peptide)
peptide: Ac-IVLSLD[dV]PIKLK([γGlu-C18 diacid])KILLEQEKQKKQREQAETN[Dap]QILAQV-NH2
SMILES: CC[C@H](C)[C@H](NC(C)=O)C(=O)N[C@H](C(=O)N[C@@H](CC(C)C)C(=O)N[C@@H](CO)C(=O)N[C@@H](CC(C)C)C(=O)N[C@@H](CC(=O)O)C(=O)N[C@@H](C(=O)N1CCC[C@H]1C(=O)N[C@H](C(=O)N[C@@H](CCCCN)C(=O)N[C@@H](CC(C)C)C(=O)N[C@@H](CCCCNC(=O)CC[C@H](NC(=O)CCCCCCCCCCCCCCCCC(=O)O)C(=O)O)C(=O)N[C@@H](CCCCN)C(=O)N[C@H](C(=O)N[C@@H](CC(C)C)C(=O)N[C@@H](CC(C)C)C(=O)N[C@@H](CCC(=O)O)C(=O)N[C@@H](CCC(N)=O)C(=O)N[C@@H](CCC(=O)O)C(=O)N[C@@H](CCCCN)C(=O)N[C@@H](CCC(N)=O)C(=O)N[C@@H](CCCCN)C(=O)N[C@@H](CCCCN)C(=O)N[C@@H](CCC(N)=O)C(=O)N[C@@H](CCCNC(=N)N)C(=O)N[C@@H](CCC(=O)O)C(=O)N[C@@H](CCC(N)=O)C(=O)N[C@@H](C)C(=O)N[C@@H](CCC(=O)O)C(=O)N[C@H](C(=O)N[C@@H](CC(N)=O)C(=O)N[C@@H](CN)C(=O)N[C@@H](CCC(N)=O)C(=O)N[C@H](C(=O)N[C@@H](CC(C)C)C(=O)N[C@@H](C)C(=O)N[C@@H](CCC(N)=O)C(=O)N[C@H](C(N)=O)C(C)C)[C@@H](C)CC)[C@@H](C)O)[C@@H](C)CC)[C@@H](C)CC)C(C)C)C(C)C
On to B2, for which the “Emax (% I)” value with CRF1R receptor is 10%. Moreover, the EC50 [nM] (cAMP) in test [1] stood at 0.17 nM.

B3: SEQ ID NO 69 (peptide)
peptide: [NMeI]VLSLD[dV]PIKLK([γGlu-C16 diacid])KILLEQEKQKKQREQAETN[Abu]QILAQV-NH2
modifications: N-terminus assumed
SMILES: CC[C@H](NC(=O)[C@H](CC(N)=O)NC(=O)[C@@H](NC(=O)[C@H](CCC(=O)O)NC(=O)[C@H](C)NC(=O)[C@H](CCC(N)=O)NC(=O)[C@H](CCC(=O)O)NC(=O)[C@H](CCCNC(=N)N)NC(=O)[C@H](CCC(N)=O)NC(=O)[C@H](CCCCN)NC(=O)[C@H](CCCCN)NC(=O)[C@H](CCC(N)=O)NC(=O)[C@H](CCCCN)NC(=O)[C@H](CCC(=O)O)NC(=O)[C@H](CCC(N)=O)NC(=O)[C@H](CCC(=O)O)NC(=O)[C@H](CC(C)C)NC(=O)[C@H](CC(C)C)NC(=O)[C@@H](NC(=O)[C@H](CCCCN)NC(=O)[C@H](CCCCNC(=O)CC[C@H](NC(=O)CCCCCCCCCCCCCCC(=O)O)C(=O)O)NC(=O)[C@H](CC(C)C)NC(=O)[C@H](CCCCN)NC(=O)[C@@H](NC(=O)[C@@H]1CCCN1C(=O)[C@H](NC(=O)[C@H](CC(=O)O)NC(=O)[C@H](CC(C)C)NC(=O)[C@H](CO)NC(=O)[C@H](CC(C)C)NC(=O)[C@@H](NC(=O)[C@@H](NC)[C@@H](C)CC)C(C)C)C(C)C)[C@@H](C)CC)[C@@H](C)CC)[C@@H](C)O)C(=O)N[C@@H](CCC(N)=O)C(=O)N[C@H](C(=O)N[C@@H](CC(C)C)C(=O)N[C@@H](C)C(=O)N[C@@H](CCC(N)=O)C(=O)N[C@H](C(N)=O)C(C)C)[C@@H](C)CC
Regarding B3, the “Emax (% I)” value in the test with CRF1R receptor turned out to be 3%. Moreover, in test [1], the EC50 [nM] (cAMP) was 0.09 nM.

B4: SEQ ID NO 70 (peptide)
peptide: [NMeI]VLSLD[dV]PIKLK([γGlu-C16 diacid])KILLEQEKQKKQREQAETN[Dap]QILAQV-NH2
modifications: N-terminus assumed
SMILES: CC[C@H](C)[C@H](NC)C(=O)N[C@H](C(=O)N[C@@H](CC(C)C)C(=O)N[C@@H](CO)C(=O)N[C@@H](CC(C)C)C(=O)N[C@@H](CC(=O)O)C(=O)N[C@@H](C(=O)N1CCC[C@H]1C(=O)N[C@H](C(=O)N[C@@H](CCCCN)C(=O)N[C@@H](CC(C)C)C(=O)N[C@@H](CCCCNC(=O)CC[C@H](NC(=O)CCCCCCCCCCCCCCC(=O)O)C(=O)O)C(=O)N[C@@H](CCCCN)C(=O)N[C@H](C(=O)N[C@@H](CC(C)C)C(=O)N[C@@H](CC(C)C)C(=O)N[C@@H](CCC(=O)O)C(=O)N[C@@H](CCC(N)=O)C(=O)N[C@@H](CCC(=O)O)C(=O)N[C@@H](CCCCN)C(=O)N[C@@H](CCC(N)=O)C(=O)N[C@@H](CCCCN)C(=O)N[C@@H](CCCCN)C(=O)N[C@@H](CCC(N)=O)C(=O)N[C@@H](CCCNC(=N)N)C(=O)N[C@@H](CCC(=O)O)C(=O)N[C@@H](CCC(N)=O)C(=O)N[C@@H](C)C(=O)N[C@@H](CCC(=O)O)C(=O)N[C@H](C(=O)N[C@@H](CC(N)=O)C(=O)N[C@@H](CN)C(=O)N[C@@H](CCC(N)=O)C(=O)N[C@H](C(=O)N[C@@H](CC(C)C)C(=O)N[C@@H](C)C(=O)N[C@@H](CCC(N)=O)C(=O)N[C@H](C(N)=O)C(C)C)[C@@H](C)CC)[C@@H](C)O)[C@@H](C)CC)[C@@H](C)CC)C(C)C)C(C)C
As for B4, the “Emax (% I)” value in the test with CRF1R receptor was found to be 0%. Also, the EC50 [nM] (cAMP) in test [1] is 0.17 nM.
